Results taken from publication PMC12105683, “Generation of Conformation‐Specific Monoclonal Antibodies for Integral Membrane Proteins” (Current Protocols, 2025).

What was measured:
Conditions in all cases: both partners purified
GluN2A = target: T1, GluN2A (Rattus norvegicus, UniProt P35439;G3V9C5); assay: BLI; Octet RED384; mAb (25 µg/ml) captured on anti-mouse IgG Fc capture (AMC) biosensors, iGluR as analyte; TBS with 0.075% LMNG or 1 mM DDM; association 900 s, dissociation 1800 s; 1:1 model, global fit
T1 construct: also called GluN2A subunit; source: HEK293S GnTI- cells/tSA201 cells, baculovirus transduction (pEG BacMam)

GluN1/GluN2A NMDAR = target: T2, GluN1/GluN2A NMDAR (Rattus norvegicus, UniProt P35439;G3V9C5); assay: SEC; fluorescence-detection SEC (FSEC) shift assay; receptor incubated with mAbs individually and in combination at a 1:2 molar ratio; Superose 6 Increase 10/300 GL, 20 mM Tris, 150 mM NaCl, 0.075% LMNG
T2 construct: GluN1 subunit of the NMDA receptor; GluN2A subunit of the NMDA receptor; also called GluN1/N2A receptor; GluN1/N2A; source: HEK293S GnTI- cells/tSA201 cells, baculovirus transduction (pEG BacMam); copies: 2 + 2

GluN1 = target: T3, GluN1 (Xenopus laevis, UniProt A0A1L8F5J9); assay: BLI; Octet RED384; mAb (25 µg/ml) captured on anti-mouse IgG Fc capture (AMC) biosensors, iGluR as analyte; TBS with 0.075% LMNG or 1 mM DDM; association 900 s, dissociation 1800 s; 1:1 model, global fit
T3 construct: also called GluN1 subunit; source: HEK293S GnTI- cells/tSA201 cells, baculovirus transduction (pEG BacMam)

[1] = target: T4, GFP-conjugated GluN1/GluN3A receptor (Rattus norvegicus, UniProt P35439;Q9R1M7); assay: SEC; fluorescence-detection SEC (FSEC) shift assay; receptor incubated with mAbs individually and in combination at a 1:2 molar ratio; Superose 6 Increase 10/300 GL, 20 mM Tris, 150 mM NaCl, 0.075% LMNG
T4 construct: GluN1 subunit of the NMDA receptor; GluN3A subunit of the NMDA receptor; also called GluN1/GluN3A NMDAR; GluN1/N3A NMDAR; source: HEK293S GnTI- cells/tSA201 cells, baculovirus transduction (pEG BacMam); copies: 2 + 2

GluA1 AMPAR = target: T5, GluA1 AMPAR (Rattus norvegicus, UniProt P19490-2); assay: BLI; Octet RED384; mAb (25 µg/ml) captured on anti-mouse IgG Fc capture (AMC) biosensors, iGluR as analyte; TBS with 0.075% LMNG or 1 mM DDM; association 900 s, dissociation 1800 s; 1:1 model, global fit
T5 construct: GluA1 subunit of the AMPA receptor; source: HEK293S GnTI- cells/tSA201 cells, baculovirus transduction (pEG BacMam)

GluA3 AMPAR = target: T6, GluA3 AMPAR (Rattus norvegicus, UniProt P19492); assay: as above
T6 construct: GluA3 subunit of the AMPA receptor; source: HEK293S GnTI- cells/tSA201 cells, baculovirus transduction (pEG BacMam)

GluN3A = target: T7, GluN3A (Rattus norvegicus, UniProt P35439;Q9R1M7); assay: as above
T7 construct: also called GluN3A subunit; source: HEK293S GnTI- cells/tSA201 cells, baculovirus transduction (pEG BacMam)

TARP γ‐8 [2] = target: T8, TARP γ‐8 (Mus musculus, UniProt Q8VHW2); assay: SEC; fluorescence-detection SEC (FSEC) shift assay; receptor incubated with mAbs individually and in combination at a 1:2 molar ratio; Superose 6 Increase 10/300 GL, 20 mM Tris, 150 mM NaCl, 0.075% LMNG
T8 construct: TARP γ-8, AMPAR auxiliary subunit; also called transmembrane AMPAR regulatory protein γ-8; source: HEK293S GnTI- cells/tSA201 cells, baculovirus transduction (pEG BacMam)

TARP γ‐2 [3] = target: T9, TARP γ‐2 (printed accession Q71RJ2 is rat; table …, UniProt Q71RJ2); assay: BLI; Octet RED384; mAb (25 µg/ml) captured on anti-mouse IgG Fc capture (AMC) biosensors, iGluR as analyte; TBS with 0.075% LMNG or 1 mM DDM; association 900 s, dissociation 1800 s; 1:1 model, global fit
T9 construct: TARP γ-2 (stargazin), AMPAR auxiliary subunit; also called transmembrane AMPAR regulatory protein γ-2; source: HEK293S GnTI- cells/tSA201 cells, baculovirus transduction (pEG BacMam)

GluA2 AMPAR = target: T10, GluA2 AMPAR (Rattus norvegicus, UniProt P19491); assay: as above
T10 construct: GluA2 subunit of the AMPA receptor; source: HEK293S GnTI- cells/tSA201 cells, baculovirus transduction (pEG BacMam)

TARP γ‐2 [4] = target: T9, TARP γ‐2; assay: SEC; fluorescence-detection SEC (FSEC) shift assay; receptor incubated with mAbs individually and in combination at a 1:2 molar ratio; Superose 6 Increase 10/300 GL, 20 mM Tris, 150 mM NaCl, 0.075% LMNG
TARP γ‐8 [5] = target: T8, TARP γ‐8; assay: BLI; Octet RED384; mAb (25 µg/ml) captured on anti-mouse IgG Fc capture (AMC) biosensors, iGluR as analyte; TBS with 0.075% LMNG or 1 mM DDM; association 900 s, dissociation 1800 s; 1:1 model, global fit

T9 sequence (Q71RJ2 whole entry, one chain of several): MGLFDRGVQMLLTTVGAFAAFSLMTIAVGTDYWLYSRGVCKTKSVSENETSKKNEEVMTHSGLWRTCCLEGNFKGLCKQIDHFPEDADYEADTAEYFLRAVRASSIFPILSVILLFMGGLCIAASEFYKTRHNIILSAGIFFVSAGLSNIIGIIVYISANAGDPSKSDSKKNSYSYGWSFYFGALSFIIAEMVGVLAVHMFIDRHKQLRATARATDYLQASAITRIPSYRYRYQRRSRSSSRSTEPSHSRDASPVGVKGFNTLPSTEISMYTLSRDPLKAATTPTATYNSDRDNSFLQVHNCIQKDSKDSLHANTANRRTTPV

B1: 3D2 mAb (antibody, V domains shown)
VH: QVQLQQSGAELMKPGASVKISCKATGYTFRSYWIEWLKQRPGHGLEWIGEILPGSGRTNYNEKFKGKATITADTSSNTAYMQLSSLTSEDSAVYYCTRSRGTMITREFTYWGQGALVTVSA
VL: DIVLTQSPASLAVSLGQRATISCRASESVEYYGTTLMQWYQQKPGQPPKLLIYAASNVDSGVPARFSGSGSGTDFSLNIHPVEEDDIAMYFCQQSRKVPSTFGGGTKLEIK
notes: IgG1/kappa; source: mouse hybridoma, bioreactor flask; purified (Protein A/G agarose)
koff (GluN2A): < 1e-07 s⁻¹ | kon (GluN2A): 1.85e+06 M⁻¹ s⁻¹

B2: 5F11 mAb (antibody, V domains shown)
VH: QGQMQQSGAELVKPGASVKLSCKTSGFSFSTSYINWLKQKPGQSLEWIAWIYAGTDGTSYNQKFTDKAQLTVDTSSSTAYMQFSSLTTDDSAIYYCAREGIYYGNYAGFTYWGQGTLVTVSA
VL: DIVMTQSPSSLAVTAGEKVTMRCKSSQSLLWSVNQNNYLSWYQQKQGQPPKLLIYGASIRESWVPDRFTGSGSGTDFTLTISNVHAEDLAVYYCQHNHGSFLPYTFGGGTKLEIK
notes: as for B1
binding result (GluN1/GluN2A NMDAR): binds | Kd (GluN1): 0.43 nM | koff (GluN1): 6.19e-05 s⁻¹ | kon (GluN1): 142000 M⁻¹ s⁻¹

B3: 2D3 mAb (antibody, V domains shown)
VH: EVQLVESGGGLVKPGGSLKLSCAASGFAFSTYDMSWVRQTPEKRLEWVAYISGGGGTTYYPGTVKGRFTISRDNAKNTLYLQMSSLKSEDTAMYYCARQGYGYSMDYWGQGTSVTVSS
VL: DVVMTQTPLSLPVSLGDQASISCRSSQSLVHSNGDTYLLWYLQKPGQSPKLLIYKVSNRFSGVPDRFSGSGSGTDFTLKISRVEAEDLGVYFCSQSTHVPRTFGGGTKLEIK
notes: IgG2b/kappa; source: purified (Protein A/G agarose)
binding result [1]: binds

B4: 11B8 mAb (antibody, V domains shown)
VH: EVKLLESGGGLVQPGGSLKLSCAASGFDFSEYWMSWVRQAPGKGLEWIGEINPDSSSIDYTPSLKDKIIISRDNAKKTLYLQLSKVRSEDTALYYCARPRGNYVVMDYWGQGTSVTVSS
VL: NIVLTQSPASLAVSLGQRATISCRASESVDSYGSSFVHWYQQKPGQPPKLLIFLASKLESGVPARFSGSGSRTDFTLTIDPVEADDAATYYCQQTNEDPYTFGGGTKLEIK
notes: IgG2b/kappa; source: mouse hybridoma, bioreactor flask; purified (Protein A/G agarose)
koff (GluA1 AMPAR): < 1e-07 s⁻¹ | kon (GluA1 AMPAR): 123000 M⁻¹ s⁻¹

B5: 5B2 mAb (antibody, V domains shown)
VH: EVQLQESGPSLVKPSQTLSLTCSVTGDSITSGYWNWIRKFPGNKLEYMGHISYRGSTYYNPSLKSRISITRDTSKNQYYLQLNSVTTEDTATYYCASRSYDEGFDSWGQGTTLTVSS
VL: NIVLTQSPASLAVSLGQRATISCRASESLDSYGNSFMHWYQQKPGQPPKLLIYLASNLESGVPARFSGSGSRTDFTLTIDPVEADDAATYYCQQNKEDLLTFGAGTKLELK
notes: as for B1
Kd (GluA3 AMPAR): < 0.001 nM | koff (GluA3 AMPAR): < 1e-07 s⁻¹ | kon (GluA3 AMPAR): 758000 M⁻¹ s⁻¹

B6: 5E3 mAb (antibody, V domains shown)
VH: QVQLQQPGAELVRPGASVKLSCKASGYSFTSYWMNWVKQRPGQGLEWIGMIHPSDSESRLNQKFKDKATLTVDKSSSTAYMQLRSPTSEDSAVYYCARSAYYRSFDYWGQGTTLTVSS
VL: DVLMTQTPLSLPVSLGDQASISCRSSQNIVHSNGNTYLEWYLQKPGQSPKLLIHKVSNRFSGVPDRFSGSGSGTDFTLKISRVEAEDLGVYYCFQGSHVPYTFGGGTKLEIK
notes: IgG1/kappa; source: purified (Protein A/G agarose)
Kd (GluN3A): 1.4 nM | koff (GluN3A): 1.99e-05 s⁻¹ | kon (GluN3A): 83700 M⁻¹ s⁻¹

B7: 3G9 mAb (antibody, V domains shown)
VH: KVQLQQSGAGLVKPGASVKLSCKASGYTFTDYIIHWIKQRSGQGLEWIGWFYPGSGSIKYNEKFKDKATLTADYSSSTVYMELSRLTSEDSAVYFCARHEHRGYYGDYPMDYWGQGTSVTVSS
VL: DIVMSQSPSSLAVSVGEKVTMSCKSSQSLLYSNNQKNYLAWYQQKPGQSPKLLIYWASTRESGVPDRFTGSGSGTDFTLTISSVKAEDLAVYYCQQYYSYPPYTFGGGTKLEIK
notes: IgG2a/kappa; source: purified (Protein A/G agarose)
binding result [1]: binds

B8: 4B2 mAb (antibody, V domains shown)
VH: EVQLQQSGAELVRSGASVKLSCTGSGFNIKDYYMHWVKQRPEQGLEWIGWIDPENGDTEYAPKFQGKATMTADTSSNTAYLHLSSLSSEDTAVYYCKGDYRYDDGGNYWGQGTSVTVSS
VL: DIQMTQTTSSLSASLGDRVTISCRASQDISNYLNWFQQKPDGTVKLLIYYTSRLHSGVPSRFSGSGSGTDYSLTINNLEQEDIATYFCQQGDSLPWTFGGGTKLEIK
notes: IgG2a/kappa; source: mouse hybridoma, bioreactor flask; purified (Protein A/G agarose)
binding result (TARP γ‐8 [2]): binds | Kd (TARP γ‐2 [3]): 4.5 nM | koff (TARP γ‐2 [3]): 0.000119 s⁻¹ | kon (TARP γ‐2 [3]): 50300 M⁻¹ s⁻¹

B9: 15F1 mAb (antibody, V domains shown)
VH: QAQLKESGPGLVAPSQSLSITCTVSGFSLTNYGVHWVRQPPGKGLEWLGVIWAGGSTNYNSALMSRVSISKDNSKSQVFLKMNSLQTDDTVMYYCAREDYDYDWHFDVWGAGTTVTVSS
VL: EIQMTQTTSSLSASLGDRVTISCRASQDISNYLSWYQQKPDGTVKLLIYYTSRLHSGVPSRFSGSGSGIDYSLTINNLEQEDFATYFCQQGNTLPLTFGAGTKLELK
notes: as for B1
Kd (GluA2 AMPAR): < 0.001 nM | koff (GluA2 AMPAR): < 1e-07 s⁻¹ | kon (GluA2 AMPAR): 1.02e+06 M⁻¹ s⁻¹

B10: 9B5 mAb (antibody, V domains shown)
VH: EVQLQQSGAELVRSGASVKLSCTTSGFNIKDYYMHWVKQRPEQGLEWIGWIDPENGDAEYAPKFQGKATMTADTSSNTAYLQLSSLTSEDTAVYYCNSGVAYWGQGTLVTVSA
VL: not shown
notes: as for B8
binding result (TARP γ‐2 [4]): binds | Kd (TARP γ‐8 [5]): 3.1 nM | koff (TARP γ‐8 [5]): 0.00103 s⁻¹ | kon (TARP γ‐8 [5]): 45900 M⁻¹ s⁻¹
